Source: article PMC12607630
Values joined by “and” are separate entries in the source; they are usually repeats but may differ in a detail not shown here. Equal values may be shown once.

Target: 6×His-SUMO-FtsZ 370-383 (Escherichia coli) (UniProt P0A9A6)
Experiment: BLI; 6×His-SUMO fusions of FtsZ or its parts, or SUMO alone (0.5 µM), held on Ni-NTA biosensors, untagged ZapC in solution; Octet-Red96, 30°C, 1× Pol buffer (50 mM HEPES-NaOH pH 6.8, 50 mM KCl, 10 mM MgCl2); apparent Kd from the signal at the end of association against concentration, one-site fit; three repeats with mean (X) and SD

In the case of “ZapC (untagged) (from UniProt P75862 1-180) (natural protein)”, the Kd is reported as 10.2 µM and 8.06 µM and 9.89 µM.
